B1: AAAT_HUMAN (protein, UniProt Q15758 1-541, looked up)
Neutral amino acid …: MVADPPRDSKGLAAAEPTANGGLALASIEDQGAAAGGYCGSRDQVRRCLRANLLVLLTVVAVVAGVALGLGVSGAGGALALGPERLSAFVFPGELLLRLLRMIILPLVVCSLIGGAASLDPGALGRLGAWALLFFLVTTLLASALGVGLALALQPGAASAAINASVGAAGSAENAPSKEVLDSFLDLARNIFPSNLVSAAFRSYSTTYEERNITGTRVKVPVGQEVEGMNILGLVVFAIVFGVALRKLGPEGELLIRFFNSFNEATMVLVSWIMWYAPVGIMFLVAGKIVEMEDVGLLFARLGKYILCCLLGHAIHGLLVLPLIYFLFTRKNPYRFLWGIVTPLATAFGTSSSSATLPLMMKCVEENNGVAKHISRFILPIGATVNMDGAALFQCVAAVFIAQLSQQSLDFVKIITILVTATASSVGAAGIPAGGVLTLAIILEAVNLPVDHISLILAVDWLVDRSCTVLNVEGDALGAGLLQNYVDRTESRSTEPELIQVKSELPLDPLPVPTEEGNPLLKHYRGPAGDATVASEKESVM
B2: C1TC_HUMAN (protein, UniProt P11586 1-935, looked up)
C-1-tetrahydrofolate …: MAPAEILNGKEISAQIRARLKNQVTQLKEQVPGFTPRLAILQVGNRDDSNLYINVKLKAAEEIGIKATHIKLPRTTTESEVMKYITSLNEDSTVHGFLVQLPLDSENSINTEEVINAIAPEKDVDGLTSINAGKLARGDLNDCFIPCTPKGCLELIKETGVPIAGRHAVVVGRSKIVGAPMHDLLLWNNATVTTCHSKTAHLDEEVNKGDILVVATGQPEMVKGEWIKPGAIVIDCGINYVPDDKKPNGRKVVGDVAYDEAKERASFITPVPGGVGPMTVAMLMQSTVESAKRFLEKFKPGKWMIQYNNLNLKTPVPSDIDISRSCKPKPIGKLAREIGLLSEEVELYGETKAKVLLSALERLKHRPDGKYVVVTGITPTPLGEGKSTTTIGLVQALGAHLYQNVFACVRQPSQGPTFGIKGGAAGGGYSQVIPMEEFNLHLTGDIHAITAANNLVAAAIDARIFHELTQTDKALFNRLVPSVNGVRRFSDIQIRRLKRLGIEKTDPTTLTDEEINRFARLDIDPETITWQRVLDTNDRFLRKITIGQAPTEKGHTRTAQFDISVASEIMAVLALTTSLEDMRERLGKMVVASSKKGEPVSAEDLGVSGALTVLMKDAIKPNLMQTLEGTPVFVHAGPFANIAHGNSSIIADRIALKLVGPEGFVVTEAGFGADIGMEKFFNIKCRYSGLCPHVVVLVATVRALKMHGGGPTVTAGLPLPKAYIQENLELVEKGFSNLKKQIENARMFGIPVVVAVNAFKTDTESELDLISRLSREHGAFDAVKCTHWAEGGKGALALAQAVQRAAQAPSSFQLLYDLKLPVEDKIRIIAQKIYGADDIELLPEAQHKAEVYTKQGFGNLPICMAKTHLSLSHNPEQKGVPTGFILPIRDIRASVGAGFLYPLVGTMSTMPGLPTRPCFYDIDLDPETEQVNGLF
B3: NOMO1_HUMAN (protein, UniProt Q15155 32-1222, looked up)
BOS complex subunit NOMO1: SEDIVVGCGGFVKSDVEINYSLIEIKLYTKHGTLKYQTDCAPNNGYFMIPLYDKGDFILKIEPPLGWSFEPTTVELHVDGVSDICTKGGDINFVFTGFSVNGKVLSKGQPLGPAGVQVSLRNTGTEAKIQSTVTQPGGKFAFFKVLPGDYEILATHPTWALKEASTTVRVTNSNANAASPLIVAGYNVSGSVRSDGEPMKGVKFLLFSSLVTKEDVLGCNVSPVPGFQPQDESLVYLCYTVSREDGSFSFYSLPSGGYTVIPFYRGERITFDVAPSRLDFTVEHDSLKIEPVFHVMGFSVTGRVLNGPEGDGVPEAVVTLNNQIKVKTKADGSFRLENITTGTYTIHAQKEHLYFETVTIKIAPNTPQLADIIATGFSVCGQISIIRFPDTVKQMNKYKVVLSSQDKDKSLVTVETDAHGSFCFKAKPGTYKVQVMVPEAETRAGLTLKPQTFPLTVTNRPMMDVAFVQFLASVSGKVSCLDTCGDLLVTLQSLSRQGEKRSLQLSGKVNAMTFTFDNVLPGKYKISIMHEDWCWKNKSLEVEVLEDDMSAVEFRQTGYMLRCSLSHAITLEFYQDGNGRENVGIYNLSKGVNRFCLSKPGVYKVTPRSCHRFEQAFYTYDTSSPSILTLTAIRHHVLGTITTDKMMDVTVTIKSSIDSEPALVLGPLKSVQELRREQQLAEIEARRQEREKNGNEEGEERMTKPPVQEMVDELQGPFSYDFSYWARSGEKITVTPSSKELLFYPPSMEAVVSGESCPGKLIEIHGKAGLFLEGQIHPELEGVEIVISEKGASSPLITVFTDDKGAYSVGPLHSDLEYTVTSQKEGYVLTAVEGTIGDFKAYALAGVSFEIKAEDDQPLPGVLLSLSGGLFRSNLLTQDNGILTFSNLSPGQYYFKPMMKEFRFEPSSQMIEVQEGQNLKITITGYRTAYSCYGTVSSLNGEPEQGVAMEAVGQNDCSIYGEDTVTDEEGKFRLRGLLPGCVYHVQLKAEGNDHIERALPHHRVIEVGNNDIDDVNIIVFRQINQFDLSGNVITSSEYLPTLWVKLYKSENLDNPIQTVSLGQSLFFHFPPLLRDGENYVVLLDSTLPRSQYDYILPQVSFTAVGYHKHITLIFNPTRKLPEQDIAQGSYIALPLTLLVLLAGYNHDKLIPLLLQLTSRLQGVRALGQAASDNSGPEDAKRQAKKQKTRRT
B4: RB12B_HUMAN (protein, UniProt Q8IXT5 1-1001, looked up)
RNA-binding protein 12B: MAVVIRLLGLPFIAGPVDIRHFFTGLTIPDGGVHIIGGEIGEAFIIFATDEDARRAISRSGGFIKDSSVELFLSSKAEMQKTIEMKRTDRVGRGRPGSGTSGVDSLSNFIESVKEEASNSGYGSSINQDAGFHTNGTGHGNLRPRKTRPLKAENPYLFLRGLPYLVNEDDVRVFFSGLCVDGVIFLKHHDGRNNGDAIVKFASCVDASGGLKCHRSFMGSRFIEVMQGSEQQWIEFGGNAVKEGDVLRRSEEHSPPRGINDRHFRKRSHSKSPRRTRSRSPLGFYVHLKNLSLSIDERDLRNFFRGTDLTDEQIRFLYKDENRTRYAFVMFKTLKDYNTALSLHKTVLQYRPVHIDPISRKQMLKFIARYEKKRSGSLERDRPGHVSQKYSQEGNSGQKLCIYIRNFPFDVTKVEVQKFFADFLLAEDDIYLLYDDKGVGLGEALVKFKSEEQAMKAERLNRRRFLGTEVLLRLISEAQIQEFGVNFSVMSSEKMQARSQSRERGDHSHLFDSKDPPIYSVGAFENFRHQLEDLRQLDNFKHPQRDFRQPDRHPPEDFRHSSEDFRFPPEDFRHSPEDFRRPREEDFRRPSEEDFRRPWEEDFRRPPEDDFRHPREEDWRRPLEEDWRRPLEEDFRRSPTEDFRQLPEEDFRQPPEEDLRWLPEEDFRRPPEEDWRRPPEEDFRRPLQGEWRRPPEDDFRRPPEEDFRHSPEEDFRQSPQEHFRRPPQEHFRRPPPEHFRRPPPEHFRRPPPEHFRRPPPEHFRRPPPEHFRRPPPEHFRRPPQEHFRRPPQEHFRRSREEDFRHPPDEDFRGPPDEDFRHPPDEDFRSPQEEDFRCPSDEDFRQLPEEDLREAPEEDPRLPDNFRPPGEDFRSPPDDFRSHRPFVNFGRPEGGKFDFGKHNMGSFPEGRFMPDPKINCGSGRVTPIKIMNLPFKANVNEILDFFHGYRIIPDSVSIQYNEQGLPTGEAIVAMINYNEAMAAIKDLNDRPVGPRKVKLTLL
B5: SMC1A_HUMAN (protein, UniProt Q14683 1-1233, looked up)
Structural maintenance of …: MGFLKLIEIENFKSYKGRQIIGPFQRFTAIIGPNGSGKSNLMDAISFVLGEKTSNLRVKTLRDLIHGAPVGKPAANRAFVSMVYSEEGAEDRTFARVIVGGSSEYKINNKVVQLHEYSEELEKLGILIKARNFLVFQGAVESIAMKNPKERTALFEEISRSGELAQEYDKRKKEMVKAEEDTQFNYHRKKNIAAERKEAKQEKEEADRYQRLKDEVVRAQVQLQLFKLYHNEVEIEKLNKELASKNKEIEKDKKRMDKVEDELKEKKKELGKMMREQQQIEKEIKEKDSELNQKRPQYIKAKENTSHKIKKLEAAKKSLQNAQKHYKKRKGDMDELEKEMLSVEKARQEFEERMEEESQSQGRDLTLEENQVKKYHRLKEEASKRAATLAQELEKFNRDQKADQDRLDLEERKKVETEAKIKQKLREIEENQKRIEKLEEYITTSKQSLEEQKKLEGELTEEVEMAKRRIDEINKELNQVMEQLGDARIDRQESSRQQRKAEIMESIKRLYPGSVYGRLIDLCQPTQKKYQIAVTKVLGKNMDAIIVDSEKTGRDCIQYIKEQRGEPETFLPLDYLEVKPTDEKLRELKGAKLVIDVIRYEPPHIKKALQYACGNALVCDNVEDARRIAFGGHQRHKTVALDGTLFQKSGVISGGASDLKAKARRWDEKAVDKLKEKKERLTEELKEQMKAKRKEAELRQVQSQAHGLQMRLKYSQSDLEQTKTRHLALNLQEKSKLESELANFGPRINDIKRIIQSREREMKDLKEKMNQVEDEVFEEFCREIGVRNIREFEEEKVKRQNEIAKKRLEFENQKTRLGIQLDFEKNQLKEDQDKVHMWEQTVKKDENEIEKLKKEEQRHMKIIDETMAQLQDLKNQHLAKKSEVNDKNHEMEEIRKKLGGANKEMTHLQKEVTAIETKLEQKRSDRHNLLQACKMQDIKLPLSKGTMDDISQEEGSSQGEDSVSGSQRISSIYAREALIEIDYGDLCEDLKDAQAEEEIKQEMNTLQQKLNEQQSVLQRIAAPNMKAMEKLESVRDKFQETSDEFEAARKRAKKAKQAFEQIKKERFDRFNACFESVATNIDEIYKALSRNSSAQAFLGPENPEEPYLDGINYNCVAPGKRFRPMDNLSGGEKTVAALALLFAIHSYKPAPFFVLDEIDAALDNTNIGKVANYIKEQSTCNFQAIVISLKEEFYTKAESLIGVYPEQGDCVISKVLTFDLTKYPDANPNPNEQ
B6: SYIM_HUMAN (protein, UniProt Q9NSE4 49-1012, looked up)
Isoleucine--tRNA ligase, …: SNHQPNSNSGRYRDTVLLPQTSFPMKLLGRQQPDTELEIQQKCGFSELYSWQRERKVKTEFCLHDGPPYANGDPHVGHALNKILKDIANRFHMMNGSKIHFVPGWDCHGLPIEIKVLSELGREAQNLSAMEIRKKARSFAKAAIEKQKSAFIRWGIMADWNNCYYTFDGKYEAKQLRTFYQMYDKGLVYRSYKPVFWSPSSRTALAEAELEYNPEHVSRSIYVKFPLLKPSPKLASLIDGSSPVSILVWTTQPWTIPANEAVCYMPESKYAVVKCSKSGDLYVLAADKVASVASTLETTFETISTLSGVDLENGTCSHPLIPDKASPLLPANHVTMAKGTGLVHTAPAHGMEDYGVASQHNLPMDCLVDEDGVFTDVAGPELQNKAVLEEGTDVVIKMLQTAKNLLKEEKLVHSYPYDWRTKKPVVIRASKQWFINITDIKTAAKELLKKVKFIPGSALNGMVEMMDRRPYWCISRQRVWGVPIPVFHHKTKDEYLINSQTTEHIVKLVEQHGSDIWWTLPPEQLLPKEVLSEVGGPDALEYVPGQDILDIWFDSGTSWSYVLPGPDQRADLYLEGKDQLGGWFQSSLLTSVAARKRAPYKTVIVHGFTLGEKGEKMSKSLGNVIHPDVVVNGGQDQSKEPPYGADVLRWWVADSNVFTEVAIGPSVLNAARDDISKLRNTLRFLLGNVADFNPETDSIPVNDMYVIDQYMLHLLQDLANKITELYKQYDFGKVVRLLRTFYTRELSNFYFSIIKDRLYCEKENDPKRRSCQTALVEILDVIVRSFAPILPHLAEEVFQHIPYIKEPKSVFRTGWISTSSIWKKPGLEEAVESACAMRDSFLGSIPGKNAAEYKVITVIEPGLLFEIIEMLQSEETSSTSQLNELMMASESTLLAQEPREMTADVIELKGKFLINLEGGDIREESSYKVIVMPTTKEKCPRCWKYTAESSDTLCPRCAEVVSGK

System: KDM4A-I71AzF
Assay: CASI: photo-crosslinking with HEK293T cell extracts, StrepTactin enrichment and LC-MS/MS proteomics;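 also: lysates from HEK293T cells pretreated with a KDM4 inhibitor to raise proteome methylation, affinity-purified after ±UV, gel-resolved, trypsin-digested, with exclusive unique peptides per protein averaged per condition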
Type: binding, human
Details: sheet "Final results but with 0.01"

| Molecule | Fold change (+UV/-UV) |
| --- | --- |
| B1 | 0.25 |
| B2 | 0.9444 |
| B3 | 0 |
| B4 | 0.8462 |
| B5 | 0.4286 |
| B6 | 4 |
